Target: WT hGRalpha (glucocorticoid receptor) (Homo sapiens, UniProt P04150 1-777)
Test: EMSA; complex abolished by 50 ng unlabeled probe; 15 min at 25 C; 4.5% acrylamide/bisacrylamide (37:1) gel, 0.25x TBE (50 mM Tris, 50 mM boric acid, 1 mM EDTA); binding buffer and pH not stated (as in ref. 26)
Conditions: protein: ivt; chain copies: 2; label: 32P-dCTP (Klenow fill-in); 5' overhangs AGCT, filled in by Klenow for the labeled probe

WT hGRalpha (glucocorticoid receptor), sequence (P04150 whole entry): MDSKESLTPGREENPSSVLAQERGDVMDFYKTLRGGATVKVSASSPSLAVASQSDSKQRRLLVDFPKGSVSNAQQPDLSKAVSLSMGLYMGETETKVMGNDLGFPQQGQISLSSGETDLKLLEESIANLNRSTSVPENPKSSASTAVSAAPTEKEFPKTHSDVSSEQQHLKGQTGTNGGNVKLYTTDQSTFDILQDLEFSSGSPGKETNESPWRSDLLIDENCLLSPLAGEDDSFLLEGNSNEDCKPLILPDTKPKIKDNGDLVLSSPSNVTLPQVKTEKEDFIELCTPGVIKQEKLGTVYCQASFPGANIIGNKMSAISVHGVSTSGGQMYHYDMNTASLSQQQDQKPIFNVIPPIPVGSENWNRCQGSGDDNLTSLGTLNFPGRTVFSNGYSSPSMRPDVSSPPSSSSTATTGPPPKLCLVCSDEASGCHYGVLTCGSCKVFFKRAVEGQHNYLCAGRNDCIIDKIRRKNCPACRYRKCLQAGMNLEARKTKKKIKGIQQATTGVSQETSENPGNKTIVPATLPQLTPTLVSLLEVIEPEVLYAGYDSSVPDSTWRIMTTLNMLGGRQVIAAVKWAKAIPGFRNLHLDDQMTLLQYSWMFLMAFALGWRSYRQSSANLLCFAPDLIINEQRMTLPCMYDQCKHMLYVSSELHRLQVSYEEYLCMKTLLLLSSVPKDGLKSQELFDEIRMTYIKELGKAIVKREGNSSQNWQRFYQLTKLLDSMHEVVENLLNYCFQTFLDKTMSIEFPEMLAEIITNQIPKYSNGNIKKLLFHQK

B1: GRE consensus probe (dsDNA)
DNA 1: AGCTGCTCAGCTAGAACACTCTGTTCTCTACT
DNA 2: AGCTAGTAGAGAACAGAGTGTTCTAGCTAGC
- binding result: binds
